# Measured values reported in patent US5955431A, “Mast cell protease peptide inhibitors” (Brigham and Women's Hospital, Inc., priority 1998, dated 1999).
# Where a SMILES comes first, the peptide text is derived from it. Where no end group is shown, it is not given here. The star is where a group is joined. pNA = O=[N+]([O-])c1ccc(N*)cc1; Tos = Cc1ccc(S(=O)(=O)*)cc1; Bz = O=C(c1ccccc1)*
# T1: recombinant mMCP-6-FLAG (Mus musculus, UniProt P21845)
# T1 construct: endogenous pro-peptide followed by EK-susceptible peptide (Asp-Asp-Asp-Asp-Lys) (N, cleaved yes); made in house; host or cells: baculovirus; Spodoptera frugiperda 9 for virus, Trichoplusia ni High Five insect cells for expression
# T1 sequence (P21845 32-276): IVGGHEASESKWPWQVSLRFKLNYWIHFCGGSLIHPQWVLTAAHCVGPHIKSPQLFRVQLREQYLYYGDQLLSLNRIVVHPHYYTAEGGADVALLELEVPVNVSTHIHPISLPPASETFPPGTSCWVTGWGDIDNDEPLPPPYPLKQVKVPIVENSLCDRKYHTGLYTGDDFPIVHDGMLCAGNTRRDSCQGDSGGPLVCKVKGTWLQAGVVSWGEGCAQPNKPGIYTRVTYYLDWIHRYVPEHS
# T2: mMCP-6/heparin complex (Mus musculus, UniProt P21845)
# T2 construct: endogenous pro-peptide followed by EK-susceptible peptide (Asp-Asp-Asp-Asp-Lys) (N, cleaved yes); made in house; host or cells: baculovirus; Spodoptera frugiperda 9 for virus, Trichoplusia ni High Five insect cells for expression
# T2 sequence (P21845 32-276): T1 sequence (P21845 32-276)
# B1: trypsin: serine protease used as comparison in fibroblast adhesion test (protein, UniProt P00760 24-246, looked up)
# Serine protease 1: IVGGYTCGANTVPYQVSLNSGYHFCGGSLINSQWVVSAAHCYKSGIQVRLGEDNINVVEGNEQFISASKSIVHPSYNSNTLNNDIMLIKLKSAASLNSRVASISLPTSCASAGTQCLISGWGNTKSSGTSYPDVLKCLKAPILSDSSCKSAYPGQITSNMFCAGYLEGGKDSCQGDSGGPVVCSGKLQGIVSWGSGCAQKNKPGVYTKVCNYVSWIKQTIASN
# B2: mMCP-6-FLAG/heparin complex: recombinant mMCP-6-FLAG bound to heparin glycosaminoglycan (protein, UniProt P21845 32-276, looked up)
# Tryptase beta-2: T1 sequence (P21845 32-276)
# modifications: C-terminal FLAG tag; complexed with heparin
# Tested on: Swiss albino mouse skin-derived 3T3 fibroblasts
# Assay: adhesion and growth of fibroblasts on fibronectin-coated culture dishes
# Assay type: cell-based
# Conditions: 15 min at 37° C.
# Procedure: However, these cells will become less adhesive and divide in vitro when they are trypsin treated. To determine if mMCP-6-FLAG could specifically alter the growth and/or adhesion of these cells, the fibroblasts were allowed to attach to replicate fibronectin-coated culture dishes and then were incubated for 15 min at 37° C. with buffer alone or buffer containing either pro-EK-mMCP-6-FLAG, mMCP-6-FLAG, mMCP-7-FLAG, or trypsin. […] SDS-PAGE/immunoblot analysis of the supernatants from the result cultures confirmed that fibronectin was degraded in the mMCP-6-FLAG-treated cultures but not in the pro-EK-mMCP-6-FLAG or mMCP-7-FLAG treated cultures.
row,Molecule,adhesion/shape of fibroblasts on fibronectin-coated dishes
1,B1,rapidly induced the cultured fibroblasts to round up

# Same assay, conditions: 40 min incubation
row,Molecule,fibroblasts remaining attached to the culture dish
1,B1,very few fibroblasts remained attached

# Molecular target: T1, recombinant mMCP-6-FLAG
# Assay: spectrophotometric cleavage of trypsin-susceptible p-nitroanilide substrates by EK-activated mMCP-6-FLAG
# Assay type: biochemical
# Conditions: in the absence of heparin
# Procedure: Purified pro-EK-mMCP-6-FLAG (~100 μg in 100 μl) was separately mixed with 100 μl of a pH 5.2 buffer consisting of 50 mM sodium acetate and 5 mM calcium chloride. One μl of a solution containing 550 U of calf intestine EK (Biozyme) was added to each, and the mixture was incubated at 37° C. generally for 3 h to allow EK to activate the zymogen in the absence of heparin. The spectrophotometric method of Svendsen and coworkers (Throm. Res. 1972, 1:267-278) was used to determine whether or not mMCP-6-FLAG is enzymatically active. Generally, 1-μl samples of each activation reaction were placed in 1 ml of a pH 7.4 buffer containing 25 mM sodium phosphate, 1 mM EDTA, and 50 μg of tosyl-Gly-Pro-Lys-p-nitroanilide. The change in optical density at 405 nm was then determined after a 3-min incubation at room temperature. The ability of recombinant mMCP-6-FLAG to cleave the trypsin-susceptible substrates tosyl-Gly-Pro-Arg-p-nitroanilide, benzoyl-Ile-Glu-Gly-Arg-p-nitroanilide, benzoyl-Pro-Phe-Arg-p-nitroanilide, and acetyl-Ile-Glu-Ala-Arg-p-nitroanilide were also evaluated.
row,cleavage of substrate by EK-activated tryptase (mMCP-6-FLAG),Molecule
1,readily cleaves,Cc1ccc(S(=O)(=O)NCC(=O)N2CCC[C@H]2C(=O)N[C@@H](CCCCN)C(=O)Nc2ccc([N+](=O)[O-])cc2)cc1 [tosyl-Gly-Pro-Lys-p-nitroanilide] (Tos-Gly-Pro-Lys-pNA)
2,readily cleaves,Cc1ccc(S(=O)(=O)NCC(=O)N2CCC[C@H]2C(=O)N[C@@H](CCCNC(=N)N)C(=O)Nc2ccc([N+](=O)[O-])cc2)cc1 [tosyl-Gly-Pro-Arg-p-nitroanilide] (Tos-Gly-Pro-Arg-pNA)

# Same assay, conditions: in the presence or absence of heparin
row,cleavage of substrate by mMCP-6-FLAG,Molecule
1,does not effectively cleave,CC[C@H](C)[C@H](NC(=O)c1ccccc1)C(=O)N[C@@H](CCC(=O)O)C(=O)NCC(=O)N[C@@H](CCCNC(=N)N)C(=O)Nc1ccc([N+](=O)[O-])cc1 [benzoyl-Ile-Glu-Gly-Arg-p-nitroanilide] (Bz-IEGR-pNA)
2,does not effectively cleave,N=C(N)NCCC[C@H](NC(=O)[C@H](Cc1ccccc1)NC(=O)[C@@H]1CCCN1C(=O)c1ccccc1)C(=O)Nc1ccc([N+](=O)[O-])cc1 [benzoyl-Pro-Phe-Arg-p-nitroanilide] (Bz-Pro-Phe-Arg-pNA)

# Molecular target: T1, recombinant mMCP-6-FLAG
# Assay: screening of tryptase-specific phage peptide display library with mMCP-6-FLAG in the absence of heparin
# Assay type: biochemical
# Conditions: library incubated 4 times with mMCP-6-FLAG, 30 clones
# Text: (§1) Screening of a Tryptase-Specific, Bacteriophage Peptide Display Library with mMCP-6--A peptide display library that encodes an altered pIII containing at its N terminus the FLAG peptide followed by an 8-residue hypervariable peptide was screened with recombinant mMCP-6-FLAG. Briefly, phage were obtained that express on their surface a pill fusion protein with an extension peptide consisting of the FLAG peptide and a hypervariable octamer peptide containing a Lys/Arg residue at the PI site. After the varied phages in the library were allowed to bind to the anti-FLAG IgG column, the immuno-affinity column was incubated with recombinant mMCP-6-FLAG in the presence or absence of heparin. Those phage recovered in the column's eluate were amplified, and the selection procedure was repeated one lo three times. By determining the nucleotide sequence of the relevant portion of the geneIII construct in each clone, the amino acid sequence of the mMCP-6-susceptible peptide in the random domain of the pIII fusion protein was deduced. To prepare the phage column used in the screening process, 10 ml of the phage-enriched supernatant was added to 2 ml of 20% polyethylene glycol (8 kDa; Sigma) and 2.5 M NaCl and the mixture incubated at 4° C. for 30 min. After a 30 min centrifugation at 10,000 g, the recombinant phage in the pellet were resuspended in 2 ml of 150 mM NaCl, 1 mM […], and 10 mM sodium phosphate, pH 7.0, and applied to a 1-ml affinity column containing the anti-FLAG M1 monoclonal antibody. The column was washed 3 times with 10 ml of the same pH 7.0 buffer to remove unbound phage. EK-activated mMCP-6-FLAG (~50 μg in 200 μl buffer) in the absence or presence of heparin glycosaminoglycan (~50 μg) was added, and the column was sealed and incubated at room temperature for 90 min. […] Log-phase E. coli were infected with the obtained phage to produce phagemid. Bacteria were again grown in 2×YT medium containing 2% glucose and the phagemid in the bacteria were converted to phage with the addition of helper phage. This screening procedure was repeated up to 4 times to select the phage in the library which are most susceptible to degradation by mMCP-6-FLAG.
# (§2) E. coli was infected with resulting mMCP-6-FLAG-susceptible phage to generate phagemids. The infected bacteria were seeded onto a plate containing 1.5% agar, 2% Bacto-tryptone, 0.5% Bacto-yeast extract, 2% glucose, 0.09 M NaCl, 0.01 M MgCl2, and 100 μg/ml ampicillin. Individual clones were isolated and grown overnight at 37° C. in 2 ml of 2×YT medium containing 2% glucose with 50 μg/ml ampicillin. One ml of the overnight cultures were centrifuged at ~12,000 g for 5 min. The bacteria in the pellets were lysed and the DNAs were extracted with mini-prep method. The DNAs were digested with NotI and EcoRI restriction enzymes at 37° C. overnight. The digested DNA mini-preps were subjected to electrophoresis on a 1% agarose gel, and those individual phage clones with ~1300-bp inserts were selected for maxi-preparation of their DNAs using nucleobond DNA-binding columns (The Nest Group). The nucleotide sequences which encode the 8-mer, protease-susceptible peptide domains in the fusion proteins were determined.
row,Clones (number of clones with this mMCP-6-susceptible peptide),Molecule
1,1,LCAKRLYR
2,1,LIALRSTT
3,1,GPRLRHPR
4,1,NSTVRKRK
5,1,IRFARSQA
6,1,QKRGREPR
7,1,RKPTKKNS
8,1,PLPCKLDA
9,1,PTPLKHPR
10,1,ECRQRHTR
11,1,NLRKRKIK
12,1,SPRPRSTP
13,1,PLILRSRA
14,1,TGVHKPST
15,1,QRTKRKHN
16,1,VRPARALH
17,1,PPPFRRSS
18,1,RQNRRPSN
19,1,SLSSRQSP
20,1,SLALRVWR
21,1,EEKKKHKK
22,1,FISRRVCR
23,1,PDNQRYIT
24,1,PYPPKRTP
25,1,KKIERRNT
26,2,VRPVKSFR
27,1,LSTSRASI

# Tested on: mouse fibronectin
# Assay: in vitro degradation of fibronectin by recombinant tryptases
# Assay type: biochemical
# Conditions: SDS-PAGE of digests
# Procedure: In Vitro Degradation of Fibronectin by Recombinant mMCP-6-FLAG--Five μg of purified mouse fibronectin (Alexis) was suspended in 1 mM EDTA and 25 mM sodium phosphate, pH 7.4, containing 0.01 U EK, 0.5 μg recombinant pro-EK-mMCP-6-FLAG, 0.5 μg recombinant mMCP-6-FLAG (activated with 0.01 U EK), or 0.5 μg recombinant mMCP-7FLAG (activated with 0.01 U EK). After an incubated for various lengths of times, the resulting digests were subjected to SDS-PAGE. In one experiment, the N-terminal amino acid sequences; of the major fibronectin fragments in the mMCP-FLAG digest were determined.
row,Molecule,cleavage of fibronectin in vitro
1,B2,readily cleaved

# Molecular target: T2, mMCP-6/heparin complex
# Assay: screening of tryptase-specific phage peptide display library with mMCP-6-FLAG in the presence of heparin
# Assay type: biochemical
# Conditions: four rounds of treatment, equal weight amount of heparin
# Text: as §1, §2
row,Clones (number of clones with this mMCP-6-susceptible peptide),Molecule
1,4,RNRQKTNN
2,1,SVLPKLRI
3,7,TPLLKSWL
4,1,PKETKQTN
5,2,SLSSRQSP

# Same assay, conditions: mMCP-6/heparin complex
row,Molecule,susceptibility of the sequence to cleavage
1,RNRQKT [SEQ. ID NO. 1],susceptible to cleavage by the mMCP-6/heparin complex

# Same assay, conditions: two rounds of treatment, equal weight amount of heparin
row,Clones (number of clones with this mMCP-6-susceptible peptide),Molecule
1,11,RNRQKTNN
2,1,PFTHKSLS
3,1,SVLPKLRI
4,5,TPLLKSWL
5,1,PKETKQTN
6,3,SLSSRQSP
